Laboratory results from patent US7108990B2, “Chemokine receptor” (ChemoCentryx, Inc., priority 1999, dated 2006).
“Also recorded” adds a separate entry of the source. Read-outs that look alike come from different tables or passages of the source.

T1: CCX CKR (Homo sapiens, UniProt Q9NPB9)
T1 construct: Full length CCX CKR expression constructs were made in pIRESpuro expression vector; expressed in transfected cells
T1 sequence (Q9NPB9 1-350): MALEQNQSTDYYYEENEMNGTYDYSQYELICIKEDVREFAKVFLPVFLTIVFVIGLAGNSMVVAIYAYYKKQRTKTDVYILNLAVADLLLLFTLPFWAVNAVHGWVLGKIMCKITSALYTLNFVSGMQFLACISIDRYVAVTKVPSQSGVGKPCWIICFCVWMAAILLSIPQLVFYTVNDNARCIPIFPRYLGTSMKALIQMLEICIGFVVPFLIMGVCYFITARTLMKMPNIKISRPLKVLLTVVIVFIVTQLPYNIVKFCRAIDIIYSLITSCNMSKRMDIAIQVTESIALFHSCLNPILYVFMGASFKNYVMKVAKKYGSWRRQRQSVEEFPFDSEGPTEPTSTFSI

B1: vMIP-II: virally-encoded chemokine from the human Kaposi's sarcoma herpesvirus HHV8 (protein)
chain: LGASWHRPDKCCLGYQKRPLPQVLLSSWYPTSQLCSKPGVIFLTKRGRQVCADKSKDWVKKLMQQLPVTAR
B2: mMIP-1gamma: murine chemokine MIP-1γ (protein)
chain: QITHATETKEVQSSLKAQQGLEIEMFHMGFQDSSDCCLSYNSRIQCSRFIGYFPTSGGCTRPGIIFISKRGFQVCANPSDRRVQRCIERLEQNSQPRTYKQ
B3: murine CTACK: murine chemokine CTACK, also referred to as CCL27, ALP, ILC, and ESkine (protein)
chain: LPLPSSTSCCTQLYRQPLPSRLLRRIVHMELQEADGDCHLQAVVLHLARRSVCVHPQNRSLARWLERQGKRLQGTVPSLNLVLQKKMYSHPQQQN
B4: TECK: thymus expressed chemokine, recombinant (protein)
chain: QGVFEDCCLAYHYPIGWAVLRRAWTYRIQEVSGSCNLPAAIFYLPKRHRKVCGNPKSREVQRAMKLLDARNKVFAKLHHNTQTFQAGPHAVKKLSSGNSKLSSSKFSNPISSSKRNVSLLISANSGL

Columns and labels:
CCX CKR [1] = target: T1, CCX CKR; assay: Small molecule screen: inhibition of 125I-ELC binding to HEK293 cells stably expressing CCX CKR; settings: for effect on binding between ELC and CCX CKR: 125I-ELC ~25–100 pM, compounds 1–5 μg/mL, HEK293-CCX CKR cells, 3 hours at 4° C.; for type of modulator of CCX CKR function: Table 1, exemplary small molecule modulators of CCX CKR binding to ELC
Protocol: Source plates of chemical libraries were obtained from commercial vendors and contained individual compounds at 5 mg/mL in DMSO, or in some instances, at 1 mg/mL. From these, multiple compound plates containing 10 compounds in each well were made, and these were diluted in 20% DMSO to a concentration of 50 μg/mL (10 μg/mL for those beginning at 1 mg/mL). An aliquot of 20 μL of each mixture was put into the test plates, which were stored frozen until use.
HEK293 cells stably expressing the M1 flag epitope-tagged CCX CKR (described in Example 3, supra) were cultured in DMEM-10% FBS, and harvested when the concentration was between 0.5–1.0×10^6 cells/mL. The cells were centrifuged and resuspended in assay buffer (20 mM HEPES, 80 mM NaCl, 1 mM CaCl2, 5 mM MgCl2, and with 0.2% bovine serum albumin, pH 7.4) to a concentration of 5.6×10^6 cells/mL.
Using a Multi-Probe automated system, 0.09 mL of cells was added to each well of the assay test plates containing the compounds, followed by 0.09 mL of ^125I-MIPβ3/ELC (from Amersham Pharmacia Biotech) diluted in assay buffer (final concentration ˜25–100 pM, with ˜50,000 cpm per well). The final concentration of the compounds was 1–5 μg/mL each. The plates were sealed and incubated for approximately 3 hours at 4° C. on a shaker platform. The assay plates were harvested using Packard GP/B filter plates, pre-soaked in PEI solution, on the vacuum harvest apparatus. Scintillation fluid (50 μL) was added to each of the wells, the plates were sealed and counted in a Top Count scintillation counter. Control wells contained either diluent only (for total counts) or excess ELC (1 μg/mL, for non-specific binding) and were used to calculate the percent of total inhibition of ELC binding for each set of compounds.

CCX CKR [2] = target: T1, CCX CKR; assay: Ligand induced internalization of Flag-CCX CKR in 293 cells (FACS); format: cell-based; settings: 100 nM chemokine, 37° C., 15 or 45 minutes, 293 F-CCR10 cells
Protocol: 293 cells transfected with the Flag-CCX CKR fusion plasmid (i.e., “293 F-CCR10 cells;” see Example 3) were incubated at 37° C. with varying concentrations of chemokines (ELC, SLC, TECK, murine CTACK and MCP-4) for 15 or 45 minutes. Following incubation, the cells were washed and fixed with 3% paraformaldehyde for 15 minutes on ice. The cells were stained with anti-Flag M1 antibody, followed by a PE-conjugated anti-mouse secondary antibody. FACS analysis were then carried out to determine surface expression of the receptor.
Results: A reduction in antibody binding in the presence of ligand is an indication of ligand-induced internalization of the receptor.

CCX CKR [3] = target: T1, CCX CKR; assay: Adhesion of HEK293-CCX CKR cells to immobilized stalkokines and competition by soluble chemokines; format: cell-based; settings: soluble recombinant chemokine 5–10 ug/ml
Description: “Stalkokine” technology was used to identify the chemokines bound by the CCX CKR. Briefly, immobilized native chemokines alone are incapable of capturing cells bearing cognate receptors (Imai et al., 1997, Cell 91:521). We have developed non-native chemokine structures, stalkokines, comprising chemokine moieties engineered as N-terminal attachments to extended modified mucins (Bazan et al., 1997, Nature 385:640). In one embodiment, stalkokines, harvested in the supernatants of HEK293 cells after transient transfection, are anchored to solid substrates via antibodies against carrier domains (e.g. poly-His epitopes) engineered to the carboxyl terminus, leaving the chemokine domain free to interact with candidate orphan receptors.
To determine ligand binding to CCX CKR, HEK293-CCX CKR cells were used to interrogate chemokine ‘stalkokines’ (SK), i.e., molecules in which discrete chemokine domains were engineered to be tethered to the end of an extended stalk structure. Stalkokines were interrogated using 8-well chamber slides coated first with anti-His anchoring antibody (10 ug/ml in PBS overnight at RT), which were washed and ‘blocked’ (2% FBS/0.5% BSA in PBS); treated with 250 ul of HEK293 cell stalkokine supernatants (1 hr at 37 C), and incubated with 500,000 HEK293-CCX CKR transfectants (1.5 hrs at RT). Inhibition of adhesion by competition with soluble chemokines was done by incubating cells with 5–10 ug/ml of recombinant chemokines. In all cases, nonadherent cells were removed by washing in PBS; remaining adherent cells were fixed with 1% glutaraldehyde, photoimaged and counted. As a primary screen this adhesion would reveal putative receptor-ligand interactions.

CCX CKR [4] = target: T1, CCX CKR; assay: Ligand binding fingerprint: cold chemokines competing against 125I-ELC on CCX CKR stable transfectants; settings: cold competitor at 200 nM; human and murine chemokines
Description: In order to rapidly and thoroughly define a given chemokine receptor's ligand binding fingerprint, we have established an approach to comprehensively profile chemokine receptors using a large array of purified chemokines and chemokine variants. We used this approach to confirm independently the interaction of ELC and other chemokines with CCX CKR. Employing radioligand binding of ^125-labeled-ELC or ^125-TECK to CCX CKR stable transfectants, chemokine specificity for the new receptor was determined.
(§1) Binding analysis was carried out using efficiency-maximized radioligand binding utilizing filtration protocols designated “Displace Max” (Dairaghi et al., 1999, J. Biol. Chem. 274:21569). In these assays, DisplaceMax employed the simultaneous interrogation of CCX CKR transfectants by >80 distinct purified chemokines in the ability to displace radiolabeled ELC or TECK, using the protocol described (Dairaghi et al., 1999, J. Biol. Chem. 274:21569).

CCX CKR [5] = target: T1, CCX CKR; assay: Radioligand binding competition (DisplaceMax) to CCX CKR stable transfectants with Scatchard transformation
Description: In one embodiment, binding is detected as described by Dairaghi et al., 1997, J. Biol. Chem. 272:28206–209 (incorporated by reference in its entirety for all purposes) substituting CCX CKR transfectants for the CCR3 transfectants). In one embodiment, binding is detected using the filter based technique described by Dairaghi et al., 1999, J. Biol. Chem. 274:2156 (incorporated by reference in its entirety for all purposes), e.g., as shown in FIG. 4. Briefly, this technology employs expanded, efficiency-maximized radioligand binding utilizing filtration protocols. In these assays, 1×10^5 CCXCKR-293 HEK cells are incubated with ^125I-labeled ELC (MIP3beta) (final concentration of ˜0.05 nM) in the presence of unlabeled chemokine for 3 h at 4° C. in 25 mM HEPES, 140 mM NaCl, 1 mM CaCl2, 5 mM MgCl2, and 0.2% bovine serum albumin, adjusted to pH 7.1. Reactions were aspirated onto PEI-treated GF/B glass filters using a cell harvester (Packard). Filters are washed twice (25 mM HEPES, 500 mM NaCl, 1 mM CaCl2 5 mM MgCl2, adjusted to pH 7.1) and scintillant (e.g., MicroScint 20; 50 μl) is added to dried filters and counted (e.g., using a Packard Topcount scintillation counter). The competition dose-response curves is analyzed by standard methods to determine IC50 values (e.g., using GraphPad Prism software (San Diego, Calif.)). Additionally, a Scatchard transformation can be used to estimate the receptor sites per cell (e.g., using WaveMetrics Igor software (Lake Oswego, Oreg.)).
as §1
The binding interactions identified in the primary screen were examined quantitatively by extensive radioligand binding competition to CCX CKR stable transfectants and Scatchard transformation of the displacement data (FIG. 4B). […] In each case, the murine versions of these chemokines also bound, and with even greater affinity; the apparent Kd's are listed in FIG. 4B. […] In similar experiments, murine CTACK bound the receptor with a Kd of ˜9 nM (not shown). CTACK is also referred to as CCL27, ALP, ILC, and ESkine.

CCX CKR [6] = target: T1, CCX CKR; assay: Homologous competition binding assay with radiolabeled chemokine on HEK293-CCX CKR cells; settings: HEK293-CCX CKR cells versus wildtype HEK293 cells
Description: Furthermore ELC-SK mediated adhesion was abolished in the presence of soluble native ELC as a competitor (FIG. 3A, top row). […] Moreover, radiolabeled ELC was used in a traditional homologous competition assay in the presence of increasing concentrations of unlabeled ELC. […] Taken together, the stalkokine-based adhesion and radiolabeled ligand binding/homologous competition assays indicate that CCX CKR is a new chemokine receptor that bound a novel compliment of chemokines.

Row | Molecule | effect on binding between ELC and CCX CKR (CCX CKR [1]) | type of modulator of CCX CKR function (CCX CKR [1]) | internalization of CCX CKR (CCX CKR [2]) | competition with 125I-labeled ELC binding to CCX CKR (fingerprint) (CCX CKR [4]) | affinity of binding to CCX CKR, in words (CCX CKR [5]) | also measured
1 | CC1CCCCN1CCCN(Cc1ccc(OCc2ccccc2)cc1)C(=O)NCC1CCC2CCCC(C2)C1 (stereo not shown) [Compound II] | inhibit binding | Compound II(antagonist) |  |  |  | 
2 | CC1CCCCN1CCCN(Cc1ccc(OCc2ccccc2)cc1)C(=O)Nc1ccc(Cl)c(Cl)c1 (stereo not shown) [Compound I] | inhibit binding | Compound I(antagonist) |  |  |  | 
3 | MCP-4: chemokine, did not cause receptor internalization |  |  | did not cause internalization |  |  | 
4 | MCP-3: chemokine, representative of many non-competing chemokines |  |  |  |  |  | effect of soluble chemokine on ELC-SK mediated adhesion of HEK293-CCX CKR cells (CCX CKR [3]): no diminution in adhesion
5 | BLC: the CXC chemokine BLC |  |  |  | potential lower affinity | lower affinity; also recorded: of lesser affinity, also bound well | 
6 | CCC(c1nc2ccccc2c(=O)n1C)N(Cc1ccco1)C(=O)Nc1cccc(C(F)(F)F)c1 (stereo not shown) [Compound III] | enhance binding | Compound III(agonist) |  |  |  | 
7 | B1 |  |  |  | potential lower affinity | moderate to low affinity | affinity of binding to CCX CKR, in words (CCX CKR [5]; listed as vMIPII): lower affinity
8 | B2 |  |  |  | moderately | lower affinity | 
9 | B3 |  |  | Internalization of the receptor was observed |  | high affinity | 
10 | B4 |  |  | Internalization of the receptor was observed | bound well | high affinity | binding in homologous competition of radiolabeled with unlabeled chemokine (CCX CKR [6]): Nearly identical results; effect of soluble chemokine on ELC-SK mediated adhesion of HEK293-CCX CKR cells (CCX CKR [3]): significant reduction; also recorded: ablation of adhesion
